In paper PMC10164577, “CAF-1 deposits newly synthesized histones during DNA replication using distinct mechanisms on the leading and lagging strands”:

Target: CAF-1 (Cac1-Cac2-Cac3) (Saccharomyces cerevisiae? (yeast), UniProt Q12495;Q04199;P13712 1-606;1-468;1-422)
Experiment: EMSA; EMSA: 25 mM Tris pH 7.5, 150 mM NaCl, 1 mM EDTA, 0.02% Tween-20, 1 mM TCEP, 50 nM DNA, 6% PAGE; SEC: 50 mM HEPES pH 7.5, 200 mM NaCl, 0.01% IGEPAL, 1 mM TCEP, 10 mM MgCl2, PCNA loading at 30 C with 3 mM ATP, CAF-1 at room temperature
Settings: protein: recombinant, chain copies: 2;2;2, blunt

B1: 43 bp DNA (dsDNA)
DNA 1: CTAGAGCTGTCTACGAGCAATTGAGCGGCCTCGGCACCGGGAT
DNA 2: ATCCCGGTGCCGAGGCCGCTCAATTGCTCGTAGACAGCTCTAG
B1 showed a Kd of 230 nM.

B2: 53 bp DNA (dsDNA)
DNA 1: CGGTGCTAGAGCTGTCTACGAGCAATTGAGCGGCCTCGGCACCGGGATTCTGA
DNA 2: TCAGAATCCCGGTGCCGAGGCCGCTCAATTGCTCGTAGACAGCTCTAGCACCG
B2 gave a Kd of 180 nM.

B3: 33 bp DNA (dsDNA)
DNA 1: GCTGTCTACGAGCAATTGAGCGGCCTCGGCACC
DNA 2: GGTGCCGAGGCCGCTCAATTGCTCGTAGACAGC
B3 showed a Kd (label: 5' Alexa Fluor 647 on forward strand) of 330 nM.
